Patent US7498317B2, “Antibacterial agents and process for producing the same” (Kabushiki Kaisha Yakult Honsha, priority 1998, dated 2009)

System: Helicobactor pylori
Assay: Growth of Helicobactor pylori in 96-well microplate (turbidity at 600 nm)
Assay type: cell-based
Conditions: 37° C. for 3 days; for suppression of the growth of Helicobactor pylori: 2 μL of 1 mg/mL added to 200 μL culture; for absorbance (turbidity at 600 nm): 2 μL of 1 mg/mL added to 200 μL of 1.5×10^8 CFU/mL in Brucella medium with 5% FCS, slightly aerobic, control group 0.835

| Compound | suppression of the growth of Helicobactor pylori | absorbance (turbidity at 600 nm) |
| --- | --- | --- |
| CC1(C)S[C@@H]2[C@H](NC(=O)C(NCC(O)C3OCC(O)C3OC3OC(CO)C(OS(=O)(=O)O)C(O)C3O)c3ccccc3)C(=O)N2C1C(=O)O (stereo partly shown) [CarrabioAM] | totally suppressed the growth | 0.003 |
| CON=C(C(=O)N[C@@H]1C(=O)N2C(C(=O)O)=C(COC(C)=O)CS[C@H]12)c1csc(NCC(O)C2OCC(O)C2OC2OC(CO)C(OS(=O)(=O)O)C(O)C2O)n1 (stereo partly shown) [CarrabioCTX] | totally suppressed the growth | 0.000 |
